Source: patent US20120214173A1, “Methods of Identifying Modulators of an Ehd Polypeptide” (priority 2007, published 2012)
Entries after “also recorded” stand apart in the source; their conditions may differ.

What was measured:
EHD2 = biological target: T1, EHD2 (Mus musculus, UniProt Q8BH64); test: Multiple turnover ATPase assay (nucleotide hydrolysis by HPLC) with or without Folch liposomes; format: biochemical; settings: for kobs stimulated ATPase reaction: 10 μM protein, 100 μM ATP, 30° C., presence of 1 mg/ml Folch (or PS) liposomes; for decrease in the stimulated ATPase rate versus wt / membrane-stimulated ATPase activity (in words): presence of Folch liposomes
T1 construct: Mouse EHD2 full-length protein and all mutants were expressed as N-terminal His-fusions followed by a PreScission cleavage site; His (N, cleaved yes); made in house; host or cells: Escherichia coli BL21 DE3 Rosetta
T1 sequence (Q8BH64 1-543): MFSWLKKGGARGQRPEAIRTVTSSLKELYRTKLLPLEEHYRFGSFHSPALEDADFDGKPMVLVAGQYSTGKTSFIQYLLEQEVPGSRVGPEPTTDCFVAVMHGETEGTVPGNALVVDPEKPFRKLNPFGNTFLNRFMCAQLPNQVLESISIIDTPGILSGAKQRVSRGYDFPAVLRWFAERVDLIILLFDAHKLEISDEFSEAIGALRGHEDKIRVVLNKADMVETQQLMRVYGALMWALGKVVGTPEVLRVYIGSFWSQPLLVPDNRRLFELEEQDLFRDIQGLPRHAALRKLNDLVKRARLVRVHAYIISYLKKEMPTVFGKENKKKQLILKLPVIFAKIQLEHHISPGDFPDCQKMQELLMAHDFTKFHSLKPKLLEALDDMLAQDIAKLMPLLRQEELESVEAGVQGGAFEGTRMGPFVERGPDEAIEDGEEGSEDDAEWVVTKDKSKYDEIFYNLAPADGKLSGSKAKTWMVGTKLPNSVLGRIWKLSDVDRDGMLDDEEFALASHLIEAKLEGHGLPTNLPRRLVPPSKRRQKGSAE
Method: (§1) Amino acid numbering corresponds to mouse EHD2. b, EHD2 binds to adenine nucleotides, as determined by ITC. For clarity, ΔΔH=ΔHn−ΔH1 is plotted. […] Images were acquired close to the basal cell surface. f, Nucleotide hydrolysis was measured by HPLC in the absence (empty symbols) or presence of Folch liposomes (filled symbols). Data represent mean and standard deviation for two (intrinisic reactions) or three (stimulated reactions) independent experiments.
(§2) ITC measurements were performed at 10° C. in 20 mM HEPES (pH 7.5), 300 mM NaCl, 2 mM MgCl2. Liposome binding assays were performed as described previously (www.endocytosis.org). Multiple turnover ATPase assays were performed in 20 mM HEPES (pH 7.5), 135 mM NaCl, 15 mM KCl, 1 mM MgCl2 at 30° C. with 10 μM EHD2 (or mutants) as enzyme and 100 μM ATP as substrate, in the absence or presence of 1 mg/ml Folch liposomes (Sigma-Aldrich).
(§3) Reactions were started by the addition of the protein to the final reaction mix and nucleotide hydrolysis was followed using standard HPLC measurement^27. Initial rates were determined by applying a linear fit to data points up to 40% nucleotide hydrolysis. For electron microscopic studies, 2.5 μM EHD2 in 20 mM HEPES (pH 7.5), 150 mM NaCl, 1 mM MgCl2 was incubated for 15 min at 25° C. in the presence of 1 mM nucleotide and 0.05 mg/ml (final concentration) of the indicated liposomes. Samples were spotted on carbon-coated copper grids (Canemco and Marivac) and negatively stained with 2% uranyl acetate.
We next monitored the effect of membrane-binding on the ATPase activity of. EHD2 under multiple-turnover conditions (10-fold excess of ATP over EHD2), in the presence and absence of Folch liposoines (FIG. 1f). The intrinsic/background ATPase activity is extremely slow (kobs=0.7 h^−1) but is stimulated 8-fold in the presence of Folch or PS liposomes (kobs=5.6 h^−1).

[1] = Liposome co-sedimentation (membrane binding) assay; settings: Folch / PS liposomes
Method: as §1
(§4) Nucleotide hydrolysis was measured as described in FIG. 1f. In vitro tubulation activity of PS liposomes was analysed as described in FIG. 1d. f, EGFP-tagged mutants were over-expressed in HeLa cells. […] For each construct, three independent experiments with ≈50 cells/experiments were analysed.
as §2
Mouse full-length EHD2 was expressed in bacteria and purified to homogeneity (FIG. 5). The purified protein was nucleotide-free as judged by HPLC analysis. […] It was previously reported that EHDs—despite having a predicted G-domain—bind to adenine nucleotides^15. […] We still refer to this domain as a G-domain because the sequence and fold (see below) are clearly similar to other G-domains. […] Using synthetic liposomes containing various different phosphatidyl-inositols (PI) (FIG. 1c) we observed best binding to liposomes containing PI(4,5)bisphosphate (PIP2).

HeLa cells = test: Over-expression of EGFP-tagged EHD2 and mutants in HeLa cells (confocal / live imaging); format: cell-based; settings: for distribution of EGFP-tagged protein over-expressed in HeLa cells: 24 h after transfection, fixed
Method: as §1, §4
Ultracentrifugation. Sedimentation velocity experiments were performed in a Beckman Optima XLA ultracentrifuge, using an An-60Ti rotor. Centrifugation was at 50,000 rev×min and 5° C. at an EHD2 concentration of 15 μM, with scans as fast as possible (˜1.5 min intervals). The data were analysed using DCDT+ v.2^44,45, with the partial specific volume for the protein (from the amino acid composition) and solvent density and viscosity calculated using Sednterp^46. Selected scans (at equal, ˜15 min intervals), and of g(s20,w) (the amount of material sedimenting between s20,w and (s20,w+δs)) and also the residuals for fitting the data with DCDT+, were plotted with the program profit v.5.6.7 (Quantum soft, Switzerland). Cell biology. N-terminal EGFP-tagged EHD2 and all mutants were over-expressed in HeLa cells from the pEGFP-C3 vector (Clontech). HeLa cells were grown as per ECACC guidelines with 10% fetal bovine serum and transfected using Genejuice (Novagen) for transient protein expression. 24 h after transfection, cells were fixed for 10 min at 37° C. in 3% paraformaldehyde and mounted. All confocal images were taken sequentially using a BioRad Radiance system and LaserSharp software (Biorad). For real-time microscopy, transfected cells on glass-bottom Petri dishes (WillCo Wells BV, Amsterdam) were washed with 25 mM HEPES (pH 7.5), 125 mM NaCl, 5 mM KCl, 10 mM D-glucose, 1 mM MgCl2, 2 mM CaCl), and epifluorescence images were taken using an Olympus IX70 microscope (Southhall, UK) and Argon laser (Melles Griot, Carlsbad, Calif.) with a Princeton instruments (Trenton, N.J.) cooled I-PentaMAX camera with MetaMorph software (Universal imaging).
EHD2 wild-type was over-expressed in HeLa cells for 24 h and imaged by EPI-fluorescence for approximately 30 min.
EHD2 T94A was over-expressed in HeLa cells for 24 h and imaged by EPI-fluorescence for approximately 30 min. […] EHD2 I157Q was over-expressed in HeLa cells for 24 h and imaged by EPI-fluorescence for approximately 30 min.

[2] = Negative stain EM of liposome tubulation/oligomerisation; settings: 2.5 μM protein, PS liposomes
Method: as §1
EHD2 was incubated with the indicated liposomes in the presence and absence of nucleotides and analysed by EM as described in Methods. a, EHD2 deformed PS liposomes into tubular networks, here in the presence of ATP-γ-S. b, Enlarged views of the indicated area in a. Note the presence of regularly spaced EHD2 rings (some are indicated with arrows). This even spacing may be due to the curvature stress generated by an EHD2 ring along the axis of the lipid tubule which might disfavour binding of the next ring in the direct vicinity (see below). c, Some of the lipid tubules (especially at higher protein concentration) were tightly packed with EHD2 oligomeric rings. d,e In the presence of ADP and in the absence of nucleotide (f,g), EHD2 also tubulated PS liposomes and formed ring-like structures around the tubules. e,g are enlarged views of the indicated areas in d and f, respectively.
as §3
Nucleotide-independence of liposome tubulation in vitro is also observed for dynamin^16. No noticeable tubule fission or alteration in tubule diameter was found for EHD2 in the presence of ATP. […] Folch liposomes were also tabulated by EHD2. However, with synthetic liposomes containing only 2.5% PIP2 and in the absence of PS, the amount of EHD binding was reduced, and in this less favourable binding condition we only observed tubulation in the presence of ATP-γ-S and ADP but not in the absence of nucleotides (FIG. 7).

B1: F322A: EHD2 membrane-binding site mutant (protein, UniProt Q8BH64 1-543, looked up, variant F322A)
EH domain-containing protein 2: MFSWLKKGGARGQRPEAIRTVTSSLKELYRTKLLPLEEHYRFGSFHSPALEDADFDGKPMVLVAGQYSTGKTSFIQYLLEQEVPGSRVGPEPTTDCFVAVMHGETEGTVPGNALVVDPEKPFRKLNPFGNTFLNRFMCAQLPNQVLESISIIDTPGILSGAKQRVSRGYDFPAVLRWFAERVDLIILLFDAHKLEISDEFSEAIGALRGHEDKIRVVLNKADMVETQQLMRVYGALMWALGKVVGTPEVLRVYIGSFWSQPLLVPDNRRLFELEEQDLFRDIQGLPRHAALRKLNDLVKRARLVRVHAYIISYLKKEMPTVAGKENKKKQLILKLPVIFAKIQLEHHISPGDFPDCQKMQELLMAHDFTKFHSLKPKLLEALDDMLAQDIAKLMPLLRQEELESVEAGVQGGAFEGTRMGPFVERGPDEAIEDGEEGSEDDAEWVVTKDKSKYDEIFYNLAPADGKLSGSKAKTWMVGTKLPNSVLGRIWKLSDVDRDGMLDDEEFALASHLIEAKLEGHGLPTNLPRRLVPPSKRRQKGSAE
- kobs stimulated ATPase reaction (EHD2): 3.0 h⁻¹
- decrease in the stimulated ATPase rate versus wt (EHD2): 40%
- membrane-stimulated ATPase activity (in words) (EHD2): reduced ATPase stimulation
- binding to liposomes (co-sedimentation) [1]: bound less to liposomes
- distribution of EGFP-tagged protein over-expressed in HeLa cells (HeLa cells): completely cytoplasmic distribution

B2: K328D: EHD2 polybasic cluster mutant (protein, UniProt Q8BH64 1-543, looked up, variant K328D)
EH domain-containing protein 2: MFSWLKKGGARGQRPEAIRTVTSSLKELYRTKLLPLEEHYRFGSFHSPALEDADFDGKPMVLVAGQYSTGKTSFIQYLLEQEVPGSRVGPEPTTDCFVAVMHGETEGTVPGNALVVDPEKPFRKLNPFGNTFLNRFMCAQLPNQVLESISIIDTPGILSGAKQRVSRGYDFPAVLRWFAERVDLIILLFDAHKLEISDEFSEAIGALRGHEDKIRVVLNKADMVETQQLMRVYGALMWALGKVVGTPEVLRVYIGSFWSQPLLVPDNRRLFELEEQDLFRDIQGLPRHAALRKLNDLVKRARLVRVHAYIISYLKKEMPTVFGKENKDKQLILKLPVIFAKIQLEHHISPGDFPDCQKMQELLMAHDFTKFHSLKPKLLEALDDMLAQDIAKLMPLLRQEELESVEAGVQGGAFEGTRMGPFVERGPDEAIEDGEEGSEDDAEWVVTKDKSKYDEIFYNLAPADGKLSGSKAKTWMVGTKLPNSVLGRIWKLSDVDRDGMLDDEEFALASHLIEAKLEGHGLPTNLPRRLVPPSKRRQKGSAE
- kobs stimulated ATPase reaction (EHD2): 1.6 h⁻¹
- decrease in the stimulated ATPase rate versus wt (EHD2): 75%
- membrane-stimulated ATPase activity (in words) (EHD2): reduced ATPase stimulation
- binding to liposomes (co-sedimentation) [1]: bound less to liposomes
- distribution of EGFP-tagged protein over-expressed in HeLa cells (HeLa cells): completely cytoplasmic distribution

B3: I157Q: EHD2 mutant with re-introduced catalytic glutamine in the active site (protein, UniProt Q8BH64 1-543, looked up, variant I157Q)
EH domain-containing protein 2: MFSWLKKGGARGQRPEAIRTVTSSLKELYRTKLLPLEEHYRFGSFHSPALEDADFDGKPMVLVAGQYSTGKTSFIQYLLEQEVPGSRVGPEPTTDCFVAVMHGETEGTVPGNALVVDPEKPFRKLNPFGNTFLNRFMCAQLPNQVLESISIIDTPGQLSGAKQRVSRGYDFPAVLRWFAERVDLIILLFDAHKLEISDEFSEAIGALRGHEDKIRVVLNKADMVETQQLMRVYGALMWALGKVVGTPEVLRVYIGSFWSQPLLVPDNRRLFELEEQDLFRDIQGLPRHAALRKLNDLVKRARLVRVHAYIISYLKKEMPTVFGKENKKKQLILKLPVIFAKIQLEHHISPGDFPDCQKMQELLMAHDFTKFHSLKPKLLEALDDMLAQDIAKLMPLLRQEELESVEAGVQGGAFEGTRMGPFVERGPDEAIEDGEEGSEDDAEWVVTKDKSKYDEIFYNLAPADGKLSGSKAKTWMVGTKLPNSVLGRIWKLSDVDRDGMLDDEEFALASHLIEAKLEGHGLPTNLPRRLVPPSKRRQKGSAE
- intrinsic/basal ATPase activity (in words) (EHD2; absence of membranes): hydrolysed ATP faster than wild-type
- membrane-stimulated ATPase activity (in words) (EHD2): not further stimulated by membranes
- liposome tubulation / oligomerisation by EM [2]: tubulated liposomes
- distribution of EGFP-tagged protein over-expressed in HeLa cells (HeLa cells): exclusively punctate staining; also recorded: labelled only very short tubules and puncta
- dynamics of tubules and puncta by EPI-fluorescence live imaging (HeLa cells; over-expressed 24 h, imaged approximately 30 min): No tubules can be found and the puncta are mostly motile
